{"source": "patent US20230203469A1", "proteins": {"B1": {"name": "Q97 ADAMTS13 (wildtype recombinant ADAMTS13) (protein)", "chain": "AAGGILHLELLVAVGPDVFQAHQEDTERYVLTNLNIGAELLRDPSLGAQFRVHLVKMVILTEPEGAPNITANLTSSLLSVCGWSQTINPEDDTDPGHADLVLYITRFDLELPDGNRQVRGVTQLGGACSPTWSCLITEDTGFDLGVTIAHEIGHSFGLEHDGAPGSGCGPSGHVMASDGAAPRAGLAWSPCSRRQLLSLLSAGRARCVWDPPRPQPGSAGHPPDAQPGLYYSANEQCRVAFGPKAVACTFAREHLDMCQALSCHTDPLDQSSCSRLLVPLLDGTECGVEKWCSKGRCRSLVELTPIAAVHGRWSSWGPRSPCSRSCGGGVVTRRRQCNNPRPAFGGRACVGADLQAEMCNTQACEKTQLEFMSQQCARTDGQPLRSSPGGASFYHWGAAVPHSQGDALCRHMCRAIGESFIMKRGDSFLDGTRCMPSGPREDGTLSLCVSGSCRTFGCDGRMDSQQVWDRCQVCGGDNSTCSPRKGSFTAGRAREYVTFLTVTPNLTSVYIANHRPLFTHLAVRIGGRYVVAGKMSISPNTTYPSLLEDGRVEYRVALTEDRLPRLEEIRIWGPLQEDADIQVYRRYGEEYGNLTRPDITFTYFQPKPRQAWVWAAVRGPCSVSCGAGLRWVNYSCLDQARKELVETVQCQGSQQPPAWPEACVLEPCPPYWAVGDFGPCSASCGGGLRERPVRCVEAQGSLLKTLPPARCRAGAQQPAVALETCNPQPCPARWEVSEPSSCTSAGGAGLALENETCVPGADGLEAPVTEGPGSVDEKLPAPEPCVGMSCPPGWGHLDATSAGEKAPSPWGSIRTGAQAAHVWTPAAGSCSVSCGRGLMELRFLCMDSALRVPVQEELCGLASKPGSRREVCQAVPCPARWQYKLAACSVSCGRGVVRRILYCARAHGEDDGEEILLDTQCQGLPRPEPQEACSLEPCPPRWKVMSLGPCSASCGLGTARRSVACVQLDQGQDVEVDEAACAALVRPEASVPCLIADCTYRWHVGTWMECSVSCGDGIQRRRDTCLGPQAQAPVPADFCQHLPKPVTVRGCWAGPCVGQGTPSLVPHEEAAAPGRTTATPAGASLEWSQARGLLFSPAPQPRRLLPGPQENSVQSSACGRQHLEPTGTIDMRGPGQADCAVAIGRPLGEVVTLRVLESSLNCSAGDMLLLWGRLTWRKMCRKLLDMTFSSKTNTLVVRQRCGRPGGGVLLRYGSQLAPETFYRECDMQLFGPWGEIVSPSLSPATSNAGGCRLFINVAPHARIAIHALATNMGAGTEGANASYILIRDTHSLRTTAFHGQQVLYWESESSQAEMEFSEGFLKAQASLRGQYWTLQSWVPEMQDPQSWKGKEGT"}}, "key": {"[1]": {"biological_target": "T1, FRETS-VWF73 substrate, P04275", "T1 chain": "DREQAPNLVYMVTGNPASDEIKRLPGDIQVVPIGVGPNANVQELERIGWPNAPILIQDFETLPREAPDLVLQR"}, "[2]": {"biological_target": "recombinant VWF (full-length, multimeric rVWF), P04275"}}, "data": [{"protein": "B1", "values": [{"measurement": "Specific rADAMTS13 activity (activity per total protein by UV)", "setting": "[1]", "result": 1750, "unit": "IU/mg"}, {"measurement": "rADAMTS13 Activity (FRETS VWF73)", "setting": "[1]", "result": 2210, "unit": "IU/mL"}, {"measurement": "Degradation of full-length rVWF under denaturing conditions (VWF multimer analysis)", "setting": "[2]", "result": "Comparable"}]}]}
